# T1: H4-15 histone H4 tail peptide
# T1 chain: GRGKGGKGLGKGGAK
# T2: H4-12(K5A/K12A) peptide
# T2 chain: RGAGGKGLGAGA
# T3: H4-12(K5X/K12A) peptide
# T3 chain: RGXGGKGLGAGA
# T4: H4-15(K5D/K12D) peptide
# T4 chain: GRGDGGKGLGDGGAK
# B1: semi-synthetic p300 HAT domain E1505R (protein)
# chain: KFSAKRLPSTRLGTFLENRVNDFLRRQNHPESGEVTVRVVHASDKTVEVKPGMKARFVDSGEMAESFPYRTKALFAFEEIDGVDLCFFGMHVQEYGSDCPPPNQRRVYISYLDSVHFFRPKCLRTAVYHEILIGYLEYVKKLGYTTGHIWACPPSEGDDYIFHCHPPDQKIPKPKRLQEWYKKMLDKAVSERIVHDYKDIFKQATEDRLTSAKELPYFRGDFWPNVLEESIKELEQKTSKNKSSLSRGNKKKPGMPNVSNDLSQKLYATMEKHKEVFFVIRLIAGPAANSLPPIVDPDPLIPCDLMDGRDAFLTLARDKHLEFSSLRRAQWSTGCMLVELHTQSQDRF
# B2: semi-synthetic p300 HAT domain T1357R (protein)
# chain: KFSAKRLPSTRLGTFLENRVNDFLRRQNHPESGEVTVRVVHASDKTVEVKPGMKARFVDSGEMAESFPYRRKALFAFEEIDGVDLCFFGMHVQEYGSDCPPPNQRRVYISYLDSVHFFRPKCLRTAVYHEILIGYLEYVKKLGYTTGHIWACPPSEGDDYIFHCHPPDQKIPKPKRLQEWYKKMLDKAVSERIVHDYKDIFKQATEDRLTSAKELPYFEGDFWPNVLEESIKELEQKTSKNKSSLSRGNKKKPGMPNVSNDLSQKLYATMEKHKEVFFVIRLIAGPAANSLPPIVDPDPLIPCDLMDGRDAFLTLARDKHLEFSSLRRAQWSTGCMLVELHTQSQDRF
# B3: semi-synthetic p300 HAT domain T1357L (protein)
# chain: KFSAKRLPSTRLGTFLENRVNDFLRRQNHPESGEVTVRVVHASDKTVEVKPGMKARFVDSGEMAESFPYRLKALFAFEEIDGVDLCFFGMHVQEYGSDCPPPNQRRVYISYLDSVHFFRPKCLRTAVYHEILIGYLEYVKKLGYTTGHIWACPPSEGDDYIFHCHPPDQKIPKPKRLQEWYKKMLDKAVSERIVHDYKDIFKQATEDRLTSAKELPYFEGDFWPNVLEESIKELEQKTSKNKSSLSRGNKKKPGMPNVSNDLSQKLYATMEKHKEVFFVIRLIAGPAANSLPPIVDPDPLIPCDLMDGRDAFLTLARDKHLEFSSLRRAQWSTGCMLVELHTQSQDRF
# B4: semi-synthetic p300 HAT domain D1625R/D1628R double mutant (protein)
# chain: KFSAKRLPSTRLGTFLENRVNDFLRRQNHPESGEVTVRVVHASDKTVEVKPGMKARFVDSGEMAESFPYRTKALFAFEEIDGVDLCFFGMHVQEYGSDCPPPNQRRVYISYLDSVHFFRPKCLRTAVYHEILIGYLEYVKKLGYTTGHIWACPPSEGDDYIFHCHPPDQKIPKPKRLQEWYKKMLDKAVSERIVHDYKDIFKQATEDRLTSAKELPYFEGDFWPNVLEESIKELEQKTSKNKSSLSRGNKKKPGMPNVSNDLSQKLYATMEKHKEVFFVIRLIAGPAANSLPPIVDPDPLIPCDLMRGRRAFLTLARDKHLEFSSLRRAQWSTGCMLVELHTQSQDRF
# B5: semi-synthetic p300 HAT domain E1505R/D1625R/D1628R triple mutant (protein)
# chain: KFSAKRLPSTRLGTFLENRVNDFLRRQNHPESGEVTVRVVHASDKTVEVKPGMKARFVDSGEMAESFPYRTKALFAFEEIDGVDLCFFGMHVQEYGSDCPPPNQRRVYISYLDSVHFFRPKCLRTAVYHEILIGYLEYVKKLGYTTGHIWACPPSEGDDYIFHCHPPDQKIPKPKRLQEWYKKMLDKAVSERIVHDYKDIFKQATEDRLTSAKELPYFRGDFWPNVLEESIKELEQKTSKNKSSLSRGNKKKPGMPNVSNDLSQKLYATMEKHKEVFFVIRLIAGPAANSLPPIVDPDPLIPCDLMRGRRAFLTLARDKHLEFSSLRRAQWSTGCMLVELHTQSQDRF
# B6: semi-synthetic p300 HAT domain D1625R (protein)
# chain: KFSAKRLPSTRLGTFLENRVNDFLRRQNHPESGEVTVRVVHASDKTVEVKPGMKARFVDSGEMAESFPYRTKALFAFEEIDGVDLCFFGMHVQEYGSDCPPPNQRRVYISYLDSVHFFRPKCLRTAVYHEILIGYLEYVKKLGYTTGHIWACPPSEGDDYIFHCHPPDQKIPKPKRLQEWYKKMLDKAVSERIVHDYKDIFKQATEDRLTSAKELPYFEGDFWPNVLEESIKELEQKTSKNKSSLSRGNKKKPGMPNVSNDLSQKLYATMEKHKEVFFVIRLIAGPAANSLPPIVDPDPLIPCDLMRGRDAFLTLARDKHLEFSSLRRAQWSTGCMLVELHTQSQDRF
# B7: semi-synthetic p300 HAT domain D1628R (protein)
# chain: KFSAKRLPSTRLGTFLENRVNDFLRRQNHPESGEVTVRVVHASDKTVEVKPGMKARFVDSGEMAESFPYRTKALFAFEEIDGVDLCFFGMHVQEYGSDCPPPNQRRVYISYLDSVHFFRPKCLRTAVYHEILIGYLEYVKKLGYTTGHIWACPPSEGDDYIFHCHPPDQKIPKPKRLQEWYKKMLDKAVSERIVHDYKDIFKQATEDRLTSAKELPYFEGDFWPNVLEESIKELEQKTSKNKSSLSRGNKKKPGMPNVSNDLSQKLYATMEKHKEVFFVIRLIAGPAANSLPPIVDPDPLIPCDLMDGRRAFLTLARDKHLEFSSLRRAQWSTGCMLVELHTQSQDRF
# B8: semi-synthetic p300 HAT domain Y1467F (protein)
# chain: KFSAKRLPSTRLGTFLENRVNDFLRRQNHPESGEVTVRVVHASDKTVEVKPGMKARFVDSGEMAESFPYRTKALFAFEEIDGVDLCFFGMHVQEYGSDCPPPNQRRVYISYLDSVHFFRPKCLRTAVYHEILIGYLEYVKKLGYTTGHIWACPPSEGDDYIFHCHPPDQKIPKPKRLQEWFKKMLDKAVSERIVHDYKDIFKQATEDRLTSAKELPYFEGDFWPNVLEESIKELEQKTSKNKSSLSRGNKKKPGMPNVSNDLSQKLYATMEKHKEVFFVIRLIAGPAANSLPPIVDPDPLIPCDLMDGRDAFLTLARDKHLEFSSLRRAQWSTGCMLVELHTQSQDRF
# B9: semi-synthetic p300 HAT domain S1396R/Y1397R double mutant (protein)
# chain: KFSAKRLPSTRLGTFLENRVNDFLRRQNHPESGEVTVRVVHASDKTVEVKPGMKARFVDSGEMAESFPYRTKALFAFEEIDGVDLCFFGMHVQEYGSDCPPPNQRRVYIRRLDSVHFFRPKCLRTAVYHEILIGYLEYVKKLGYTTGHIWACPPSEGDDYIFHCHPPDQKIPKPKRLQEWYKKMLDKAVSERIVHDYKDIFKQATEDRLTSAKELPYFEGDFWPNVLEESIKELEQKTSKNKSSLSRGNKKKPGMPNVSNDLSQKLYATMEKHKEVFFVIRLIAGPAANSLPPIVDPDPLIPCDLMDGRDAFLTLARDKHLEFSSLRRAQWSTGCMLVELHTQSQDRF
# B10: semi-synthetic p300 HAT domain Y1394F (protein)
# chain: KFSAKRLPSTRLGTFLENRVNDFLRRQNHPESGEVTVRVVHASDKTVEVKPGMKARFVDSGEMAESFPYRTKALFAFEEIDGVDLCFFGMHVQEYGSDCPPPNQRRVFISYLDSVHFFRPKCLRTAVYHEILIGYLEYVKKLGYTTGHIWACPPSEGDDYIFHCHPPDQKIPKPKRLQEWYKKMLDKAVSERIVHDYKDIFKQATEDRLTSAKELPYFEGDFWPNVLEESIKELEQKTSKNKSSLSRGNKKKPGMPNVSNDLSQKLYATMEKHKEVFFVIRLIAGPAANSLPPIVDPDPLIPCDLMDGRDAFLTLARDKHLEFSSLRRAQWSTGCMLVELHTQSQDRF
# B11: semi-synthetic p300 HAT domain W1436A (protein)
# chain: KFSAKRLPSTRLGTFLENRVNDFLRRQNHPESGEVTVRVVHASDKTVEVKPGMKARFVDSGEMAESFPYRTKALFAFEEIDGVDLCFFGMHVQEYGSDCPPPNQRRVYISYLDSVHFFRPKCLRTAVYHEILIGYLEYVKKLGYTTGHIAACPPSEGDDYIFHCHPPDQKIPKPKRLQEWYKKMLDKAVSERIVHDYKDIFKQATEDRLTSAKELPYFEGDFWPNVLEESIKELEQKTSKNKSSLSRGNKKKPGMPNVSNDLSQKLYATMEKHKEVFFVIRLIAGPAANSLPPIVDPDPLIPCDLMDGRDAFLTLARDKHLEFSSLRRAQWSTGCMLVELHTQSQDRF
# B12: semi-synthetic p300 HAT domain H1434A (protein)
# chain: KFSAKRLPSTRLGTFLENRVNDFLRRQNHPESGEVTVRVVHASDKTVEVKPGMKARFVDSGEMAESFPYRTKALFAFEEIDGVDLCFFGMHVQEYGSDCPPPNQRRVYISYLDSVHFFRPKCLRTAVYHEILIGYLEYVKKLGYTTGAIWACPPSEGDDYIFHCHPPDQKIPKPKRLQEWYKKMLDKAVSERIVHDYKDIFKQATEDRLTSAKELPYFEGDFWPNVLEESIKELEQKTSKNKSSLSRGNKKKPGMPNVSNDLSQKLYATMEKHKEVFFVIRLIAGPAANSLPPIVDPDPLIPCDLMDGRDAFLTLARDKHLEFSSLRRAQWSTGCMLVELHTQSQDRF
# B13: semi-synthetic p300 HAT domain R1410A (protein)
# chain: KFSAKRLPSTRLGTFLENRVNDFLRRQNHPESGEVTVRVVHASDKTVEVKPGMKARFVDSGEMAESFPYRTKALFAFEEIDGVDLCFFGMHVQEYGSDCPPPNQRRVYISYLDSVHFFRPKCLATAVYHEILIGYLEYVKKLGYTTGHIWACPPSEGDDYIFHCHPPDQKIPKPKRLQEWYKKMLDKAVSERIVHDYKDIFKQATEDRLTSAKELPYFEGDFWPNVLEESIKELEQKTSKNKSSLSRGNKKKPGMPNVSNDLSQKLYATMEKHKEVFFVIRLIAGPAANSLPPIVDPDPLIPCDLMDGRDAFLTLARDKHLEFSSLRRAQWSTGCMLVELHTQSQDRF
# B14: semi-synthetic p300 HAT domain R1410K (protein)
# chain: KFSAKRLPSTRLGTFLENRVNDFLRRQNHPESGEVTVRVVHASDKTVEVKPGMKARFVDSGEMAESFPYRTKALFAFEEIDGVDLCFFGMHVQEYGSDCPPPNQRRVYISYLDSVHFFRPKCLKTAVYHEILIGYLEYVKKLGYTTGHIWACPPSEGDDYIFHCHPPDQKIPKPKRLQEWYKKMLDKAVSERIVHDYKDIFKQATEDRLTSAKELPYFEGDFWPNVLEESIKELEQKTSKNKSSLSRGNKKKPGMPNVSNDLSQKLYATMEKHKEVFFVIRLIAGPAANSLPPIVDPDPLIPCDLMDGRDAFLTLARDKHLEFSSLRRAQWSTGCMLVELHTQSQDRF
# Key:
# [1] = target: T1, H4-15 histone H4 tail peptide
# H4-12(K5A/K12A) peptide = target: T2, H4-12(K5A/K12A) peptide
# H4-12(K5X/K12A) peptide = target: T3, H4-12(K5X/K12A) peptide
# H4-15(K5D/K12D) peptide = target: T4, H4-15(K5D/K12D) peptide
Protein,Km(µM) for H4-15 [1],V/K [1],further results
B1,>1000,2000 M⁻¹ s⁻¹,V/K decrease against wild-type [1]: V/K was decreased by 12-fold
B2,294 µM,13200 M⁻¹ s⁻¹,–
B3,111 µM,18700 M⁻¹ s⁻¹,–
B4,>1000,1160 M⁻¹ s⁻¹,V/K(M^-1s^-1) for D1625R/D1628R (H4-12(K5A/K12A) peptide): 515 M⁻¹ s⁻¹; loss in V/K against wild-type (H4-12(K5A/K12A) peptide): the loss of 6-fold in V/K for neutral H4 substrates; V/K(M^-1s^-1) for D1625R/D1628R (H4-12(K5X/K12A) peptide): 738 M⁻¹ s⁻¹; loss in V/K against wild-type (H4-12(K5X/K12A) peptide): the loss of 6-fold in V/K for neutral H4 substrates; V/K difference against wild-type [1]: the 22-fold V/K difference between wild-type p300 HAT protein and the D1625R/D1628R mutant for H4-15 substrate; V/K drop against wild-type [1]: a 20-fold drop in V/K; V/K(M^-1s^-1) for D1625R/D1628R [1]: 1160 M⁻¹ s⁻¹; V/K(M^-1s^-1) for D1625R/D1628R (H4-15(K5D/K12D) peptide): 422 M⁻¹ s⁻¹; acetyltransferase activity against wild-type (H4-15(K5D/K12D) peptide): almost equal (within 2-fold) acetyltransferase activity
B5,>1000,232 M⁻¹ s⁻¹,–
B6,640 µM,5670 M⁻¹ s⁻¹,V/K decrease against wild-type [1]: a V/K decrease of about 5-fold
B7,>1000,2100 M⁻¹ s⁻¹,V/K decrease against wild-type [1]: V/K was decreased by 12-fold
B8,520 µM,–,–
B9,–,–,decrease of p300 HAT activity against wild-type [1]: severely decreased p300 HAT activity (>50-fold)
B10,136 µM,–,–
B11,394 µM,–,–
B12,151 µM,–,–
B13,190 µM,–,–
B14,156 µM,–,–

# Source: patent US20100216853
